The text below walks through data of patent US20090099029.

Numbering of substitutions follows the chain as printed. Names and notes keep the numbering of the source.

The data set has as its target T1, Bovine, dephosphorylated, Myelin Basic Protein (MBP), P02687.
T1 chain: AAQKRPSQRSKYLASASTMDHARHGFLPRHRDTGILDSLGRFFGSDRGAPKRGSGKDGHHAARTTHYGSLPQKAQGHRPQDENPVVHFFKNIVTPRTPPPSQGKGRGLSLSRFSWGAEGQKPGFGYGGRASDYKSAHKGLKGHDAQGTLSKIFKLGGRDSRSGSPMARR

B1: PDGFRB (protein)
chain: MLWQKKPRYEIRWKVIESVSSDGHEYIYVDPMQLPYDSTWELPRDQLVLGRTLGSGAFGQVVEATAHGLSHSQATMKVAVKMLKSTARSSEKQALMSELKIMSHLGPHLNVVNLLGACTKGGPIYIITEYCRYGDLVDYLHRNKHTFLQHHSDKRRPPSAELYSNALPVGLPLPSHVSLTGESDGGYMDMSKDESVDYVPMLDMKGDVKYADIESSNYMAPYDNYVPSAPERTCRATLINESPVLSYMDLVGFSYQVANGMEFLASKNCVHRDLAARNVLICEGKLVKICDFGLARDIMRDSNYISKGSTFLPLKWMAPESIFNSLYTTLSDVWSFGILLWEIFTLGGTPYPELPMNEQFYNAIKRGYRMAQPAHASDEIYEIMQKCWEEKFEIRPPFSQLVLLLERLLGEGYKKKYQQVDEEFLRSDHPAILRSQARLPGFHGLRSPLDTSSVLYTAVQPNEGDNDYIIPLPDPKPEVADEGPLEGSPSLASSTLNEVNTSSTISCDSPLEPQDEPEPEPQLELQVEPEPELEQLPDSGCPAPRAEAEDSFL
On to B1, for which the “MBP Kinase Activity” value is listed as “Strong”.

B2: PDGFRA (protein)
chain: KQKPRYEIRWRVIESISPDGHEYIYVDPMQLPYDSRWEFPRDGLVLGRVLGSGAFGKVVEGTAYGLSRSQPVMKVAVKMLKPTARSSEKQALMSELKIMTHLGPHLNIVNLLGACTKSGPIYIITEYCFYGDLVNYLHKNRDSFLSHHPEKPKKELDIFGLNPADESTRSYVILSFENNGDYMDMKQADTTQYVPMLERKEVSKYSDIQRSLYDRPASYKKKSMLDSEVKNLLSDDNSEGLTLLDLLSFTYQVARGMEFLASKNCVHRDLAARNVLLAQGKIVKICDFGLARDIMHDSNYVSKGSTFLPVKWMAPESIFDNLYTTLSDVWSYGILLWEIFSLGGTPYPGMMVDSTFYNKIKSGYRMAKPDHATSEVYEIMVKCWNSEPEKRPSFYHLSEIVENLLPGQYKKSYEKIHLDFLKSDHPAVARMRVDSDNAYIGVTYKNEEDKLKDWEGGLDEQRLSADSGYIIPLPDIDPVPEEEDLGKRNRHSSQTSEESAIETGSSSSTFIKREDETIEDIDMMDDIGIDSSDLVEDSFL
Regarding B2, the “MBP Kinase Activity” value was “Strong”.

B3: PDGFRA, T674I (protein)
chain: B2 chain with T125I
With B3, the “MBP Kinase Activity” value is “Negative”.

B4: MET (protein)
chain: KKRKQIKDLGSELVRYDARVHTPHLDRLVSARSVSPTTEMVSNESVDYRATFPEDQFPNSSQNGSCRQVQYPLTDMSPILTSGDSDISSPLLQNTVHIDLSALNPELVQAVQHVVIGPSSLIVHFNEVIGRGHFGCVYHGTLLDNDGKKIHCAVKSLNRITDIGEVSQFLTEGIIMKDFSHPNVLSLLGICLRSEGSPLVVLPYMKHGDLRNFIRNETHNPTVKDLIGFGLQVAKGMKYLASKKFVHRDLAARNCMLDEKFTVKVADFGLARDMYDKEYYSVHNKTGAKLPVKWMALESLQTQKFTTKSDVWSFGVLLWELMTRGAPPYPDVNTFDITVYLLQGRRLLQPEYCPDPLYEVMLKCWHPKAEMRPSFSELVSRISAIFSTFIGEHYVHVNATYVNVKCVAPYPSLLSSEDNADDEVDTRPASFWETS
Turning to B4, the “MBP Kinase Activity” value is “Strong”.

B5: MUSK (protein)
chain: CCRRRKQWKNKKRESAAVTLTTLPSELLLDRLHPNPMYQRMPLLLNPKLLSLEYPRNNIEYVRDIGEGAFGRVFQARAPGLLPYEPFTMVAVKMLKEEASADMQADFQREAALMAEFDNPNIVKLLGVCAVGKPMCLLFEYMAYGDLNEFLRSMSPHTVCSLSHSDLSMRAQVSSPGPPPLSCAEQLCIARQVAAGMAYLSERKFVHRDLATRNCLVGENMVVKIADFGLSRNIYSADYYKANENDAIPIRWMPPESIFYNRYTTESDVWAYGVVLWEIFSYGLQPYYGMAHEEVIYYVRDGNILSCPENCPVELYNLMRLCWSKLPADRPSFTSIHRILERMCERAEGTVSV
Turning to B5, the “MBP Kinase Activity” value is recorded as “Negative”.
